Data published in US7985736B2, “High throughput screen utilizing newly discovered intramolecular neuronal calcium channel interactions to discover new analgesics” (The John Hopkins University, priority 2004, dated 2011).

How the values were obtained:
[1] = target: T1, I-II loop of α1B (I-IIB) (Homo sapiens, UniProt Q00975); assay: Yeast two-hybrid assay, NT peptides versus I-IIB; format: binding; conditions: NT segment in pGBKT7, I-IIB in pGADT7
T1 construct: I-IIB(357-482)-pGADT7 & lam-pGBKT7; expressed in transfected cells; host or cells: AH109 yeast
Description: (§1) For yeast two-hybrid assays, a PCR fragment encoding one partner was fused, in-frame, with the GAL4 DNA binding domain (BD) in pGBKT7 (Clontech, Palo Alto, Calif.). The other element was fused, in-frame, with the GAL4 activation domain (AD) in pGADT7. For specific residues, see Supplemental Data (section 2). For electrophysiology, NT peptides lacking fluorophore tag were PCR amplified and cloned in pcDNA3. NTB peptide residues, 1-95; NTC residues, […]. Throughout, all segments subject to PCR or QuikChange were verified in their entirety by sequencing.
(§2) The Matchmaker GAL4 Two-Hybrid System 3 was used (Clontech, Palo Alto, Calif.). AH109 yeast were transformed with pGBKT7/pGADT7-based constructs (Yeastmaker Yeast Transformation System 2 kit, Clontech). After 5-8 days, growth on -leucine/-trytophan plates confirmed transformation of both plasmids. If partners interact, GAL4 BD/AD would complex, activating reporter genes (HIS3, ADE2, lacZ, and MEL1), for which assays are detailed in the Supplemental Data (section 2.1).
(§3) As a ‘medium’ stringency assay, expression of the lacZ gene was tested for encoding β-galactosidase, performing a filter lift with application of blue chromogenic substrate (Clontech-Laboratories, 1999). After the filter lift, original plates were re-grown for 2-3 days at 30° C. Filter paper was then used to replicate colonies onto a high stringency plate (-adenine/-histidine/-leucine/-trytophan). These plates were then incubated at 30° C. for 5-8 days. Survival on high stringency plates indicates production of both adenine and histidine, from transcription of the ADE2 and HIS3 genes, respectively. The percentage of colonies that turned blue in the filter lift assay, along with the percentage of colonies that survived on high stringency plates, was recorded for each pairing. Experiments were repeated at least three times. False positives were controlled for by testing each segment in pGBKT7 against empty pGADT7, and each segment in pGADT7 against lamin C in pGBKT7 (lamin C interacts with few proteins). Average sum of these backgrounds was subtracted from B to produce the net interaction parameter ΔB (FIG. 2).

[2] = target: T2, Gβ1 (Bos taurus, UniProt P62871); assay: Yeast two-hybrid assay, channel fragments versus Gβ1; format: binding; conditions: Gβ1 in pGADT7, channel fragment in pGBKT7
T2 construct: expressed in transfected cells; host or cells: AH109 yeast
Description: as §1, §2
as §3, with “Average sum of these backgrounds was subtracted from B to produce the net interaction parameter ΔB (FIG. 2).” left out

[3] = target: T3, I-II loop of α1C (I-IIC) (Oryctolagus cuniculus, UniProt P15381); assay: Yeast two-hybrid assay, NT peptides versus I-IIC; format: binding, rabbit; conditions: NT segment in pGBKT7, I-IIC in pGADT7
T3 construct: I-IIC (436-554)/pGBKT7; expressed in transfected cells; host or cells: AH109 yeast
Description: as §1
The Matchmaker GAL4 Two-Hybrid System 3 was used (Clontech, Palo Alto, Calif.). AH109 yeast were transformed with pGBKT7/pGADT7-based constructs (Yeastmaker Yeast Transformation System 2 kit, Clontech). After 5-8 days, growth on -leucine/-trytophan plates confirmed transformation of both plasmids. […]
As a ‘medium’ stringency assay, expression of the lacZ gene was tested for encoding β-galactosidase, performing a filter lift with application of blue chromogenic substrate (Clontech-Laboratories, 1999). […] The percentage of colonies that turned blue in the filter lift assay, along with the percentage of colonies that survived on high stringency plates, was recorded for each pairing. […]

T2 sequence (P62871 whole entry, the tested form may be a part): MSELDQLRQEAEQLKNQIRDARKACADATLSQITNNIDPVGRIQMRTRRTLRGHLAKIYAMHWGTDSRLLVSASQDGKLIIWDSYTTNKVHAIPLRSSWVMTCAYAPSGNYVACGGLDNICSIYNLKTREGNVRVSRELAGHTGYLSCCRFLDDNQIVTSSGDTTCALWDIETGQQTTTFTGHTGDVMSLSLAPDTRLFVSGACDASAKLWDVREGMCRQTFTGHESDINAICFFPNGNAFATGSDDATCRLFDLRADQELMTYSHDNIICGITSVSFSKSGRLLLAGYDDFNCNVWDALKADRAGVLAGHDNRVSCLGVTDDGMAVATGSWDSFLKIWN
T3 sequence (P15381 436-554): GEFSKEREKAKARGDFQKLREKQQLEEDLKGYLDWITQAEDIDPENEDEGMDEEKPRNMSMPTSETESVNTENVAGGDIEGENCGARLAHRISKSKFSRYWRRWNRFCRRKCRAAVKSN
T1 sequence (Q00975 357-482): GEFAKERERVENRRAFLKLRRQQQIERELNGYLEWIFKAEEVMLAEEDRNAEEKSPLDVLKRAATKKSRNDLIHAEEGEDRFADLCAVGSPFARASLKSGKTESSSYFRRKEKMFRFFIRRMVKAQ

Molecule | Interaction with I-IIB (yeast two-hybrid, ΔB) [1] | Interaction with Gβ1 (yeast two-hybrid) [2] | Interaction with I-IIC (yeast two-hybrid) [3]
NTC: NH3 terminus of L-type channel α1C subunit, free peptide [reference compound] | failed to reveal an association | interact | failed to reveal an association
NTB: NH3 terminus of N-type channel α1B subunit, residues 1-95, expressed as free peptide (SEQ ID NO.: 1) (protein, listed as Homo sapiens) MVRFGDELGGRYGGPGGGERARGGGAGGAGGPGPGGLQPGQRVLYKQSIAQRARTMALYNPIPVKQNCFTVNRSLFVFSEDNVVRKYAKRITEWP | positive | interact | failed to reveal an association
